The data set deals with the molecule itself. Briefly: negative-stain transmission electron microscopy with 2D image reconstruction; SlaA-enriched sacculi (lipids and SlaB removed by SDS washes) sonicated to fragments, on glow discharged grid, 2% uranyl acetate; Fourier domain processing; p3 hexagonal lattice.

B1: S-layer large protein (SlaA) from Saccharolobus solfataricus P2 (natural protein, UniProt Q980C7 36-1231, looked up)
chain: AAIYTIPSVTSVSNTSNIVINLFFNATSNSTVGAQASAFNYGLAINYTLDAITFTVVLPSGTSYPLIKLNAKNFANYGYYDLAHNSIVLLLNTTASSTAKELAYSYEQSIGVTPSASYKIYNYTNKTVNVNQYMNELPLSMLIYMATNGKYNNLASLPVGTKLEFTYAGVTYIIAVSPTVKLVGELLNPLYTANSKMLPGTNYAVGRSNITVAVYDNLITTTTSPFNFTLTYSSLAPALIYWFVIANTTYTNNGASTPTASFQAPPFKQYFPSNSTILYSAAPTKSSILMFNGQMNVTAHENVTLTLQTGTNIYTSPNFNVTPPGNYTFSGKLGVGFNGFIYQNGSATLTATIFNGTINFFFSSTGQKAAFTFFLVPIVPINLGDNNGATVIYNGVSLNTGFPQVVVMFNITGNFTKSGSNYLLYGSVYEAELKPLGSTQLQKLAGATDSTQFVGNLISSASSPLVSYFNYGESTTTITGTSLSFTVLMPLKFIVERLGYIYLVTFHIWGPSATVTVTGVDYHGTQIALGSFRAYVALPSFYTLPKTPLVGLTCDNMYTLAQVSDAGSVLETSTANSNANNATVIGPYDLMSNAGLHVAIYNGSKLVKSGNLGLLPNATTAPITTTITLNGQTVALTYSSAPTAIYPVDFKFEPGFSYSVTTNVIYNTSIPTYVVTVYMPLKYILQTKIVMWYVSPDYAAYFYYSSTGQYQTSNVTLTFANVTPELVMPQVFPVGKLYMPFGINDPYYVFYSSISIGPQSGVIEAVENGFNVGNITSITVELNGMNESIVLSPLNVSKLLISSNLGEVSQCSPLFTTTLFNISALASLLGLPNAAALNGSYLYVTYHDIISGAYVTNRTLLVVGQFYVMPPTTPGSVEWILTAKYINATTGIPVEISYAVVQQPSAKVVDINAANASITQIQVTGVKIVSKYATVTVMYNPSNASTIVYMNGMFVASYGGNLISSLSETSTFGVYYGAVVNLYVATGTLSSPNGTMYVVLGSHKVAVGTANLYTYAGYHFGPYTALPLVSNVTFTVQDPVTHATLTGQTTLGAFNNTPIRLAPLGVSIPQTAQYKVFYYYSTPLVLSPTSQYIVLSVTSVISYPYPFYIETVSFLGYNVTTGTPVPGTPAFQTVYSPSLGPGVVLQVPVQSYQFISLSTPSEPHTVVMFAVPFAGGPAISLYPTFLVYANVTAISS
modifications: glycosylated (sites not given)
notes: SlaA, S-layer large protein of Saccharolobus solfataricus P2; UniProt KB entry Q980C7; Mr 131 kDa as printed; Native protein isolated as an assembled S-layer lattice (sacculi and fragments), not as soluble monomers; also called surface layer large protein; SSO sacculi; source: endogenous, Saccharolobus solfataricus P2; sacculi extracted with sodium lauroylsarcosine and sonication (SEG), washed …
Consider B1, for which the binding result was “binds”.

The record behind these values is paper PMC9320373, “Isolation and Characterization of Cell Envelope Fragments Comprising Archaeal S-Layer Proteins” (Nanomaterials, 2022).
